Data: patent US6818221B2, “Adjuvants and processes to induce a specific type of immune response” (Baylor Research Institute, priority 2000, dated 2004)

Tests used:
[1] = tested on: OVA-specific CD4+ T cells; test: Clonal expansion of OVA-specific CD4+ T cells in vivo (OT-2 adoptive transfer, flow cytometry); set-up: species or system mice; conditions: OVA with or without LPS adjuvant; footpad or intraperitoneal; Day 4
Excerpt: OT-2 TCR transgenic mice (strain 426-6), generated by Dr. W. Heath (Walter & Eliza Hall Institute, Melbourne, Australia) and Dr. F. Carbone (Monash University, Melbourne, Australia) were obtained from Dr. J. Kapp (Emory University, Atlanta). OT-1 TCR transgenic mice were purchased from Jackson Laboratory (Bar Harbor, Me.). C57BL/6 mice, B6.PL.THY1^a (B6.PL) mice, and C3H/HeJ mice were purchased from Jackson Laboratory (Bar Harbor, Me.). C3H/HeN mice were purchased from Harlan Sprague Dawley (Indianapolis, Ind.). All mice were kept in microisolator cages in a specific-pathogen free facility. For adoptive transfers, age matched, male C57BL/6 or B6.PL.THY1^a recipients were given 2.5×10^6 of either OT-2 cells or OT-1 TCR transgenic T cells intravenously.
Reconstituted mice (3-5 per group) were injected either intraperitoneally, or in the footpad, with either 2 mg OVA in saline, 2 mg OVA+25 μg E. coli LPS, or 2 mg OVA+25 μg P. gingivalis LPS. Endotoxin activity in saline was measured by LAL QCL-1000 kit, and observed to be below the detection limit. […]
The reconstituted mice were injected with one of the following compositions: soluble endotoxin-free OVA, E. coli LPS alone, P. gingivalis LPS alone, OVA+E. coli LPS, or OVA+P. gingivalis LPS. […] The CD4+ OVA-specific T cell response in either the draining lymph nodes or in the spleen was monitored by flow cytometry (FIG. 2A).

[2] = tested on: OVA-specific CD4+ T cells; test: Cytokine production by antigen-specific T-helper cells in restimulated cultures (ELISA); type: in vivo, mice; conditions: CD4+ OT-2 system; culture supernatants after 72 hours OVA restimulation
Experimental: (§1) Four days after injecting with OVA or OVA+LPS, 2.5×10^5 popliteal lymph node cells (footpad injections) or splenocytes (intraperitoneal injections) were plated in triplicate in 96-well flat bottomed plates (Costar, Cambridge, Mass.) in 200 μl of RPMI complete medium (GIBCO BRL, Grand Island, N.Y., US) supplemented with 5% fetal bovine serum (FBS), together with different concentrations (0-500 μg/mL of OVA, or OVA peptide (SIINFEKL, SEQ ID NO:1) (New England Peptide Incorporated, Fitchburg, Mass.). Proliferative responses were assessed after 72 hours of culture in a humidified atmosphere of 5% CO2 in air. Cultures were pulsed with 1.0 μCi [^3H] thymidine for 12 hours, and incorporation of the radionucleotide was measured by β-scintillation spectroscopy (Pulendran, B., et al. 1999. “Distinct dendritic cell subsets differentially regulate the class of immune response in vivo,” Proc Natl Acad Sci USA 96:1036-1041). For cytokine assays, aliquots of culture supernatants were removed after 72 hours, pooled, and assayed for the presence of IFNγ, IL-2, IL-4, IL-5, IL-10, and IL-13 by ELISA.
(§2) IFNγ, IL-2, IL-10, IL-4, IL-5, IL-6, IL-12, IL-13 and TNFα were quantified by ELISA kits from Pharmingen (San Diego, Calif.) using manufacturer's instructions dated 2000.
Cytokine production by antigen-specific T cells was measured by assaying the culture supernatants from the single cell suspensions of the draining lymph nodes described above for IL-2, IFNγ, IL-4, IL-10 and IL-5.

[3] = tested on: OVA-specific CD8+ T cells; test: Cytokines produced in CD8+ T-cell cultures (ELISA); type: in vivo, mice; conditions: CD8+ OT-1 cells
Experimental: as §1, §2
We next examined the cytokines produced in CD8+ T-cell cultures by ELISA.

[4] = tested on: OVA-specific CD4+ T cells; test: IL-13 production by antigen-specific T cells in restimulated cultures (ELISA); type: in vivo, B6.PL.THY1a (B6.PL) mice; conditions: route not distinguished (intraperitoneally or subcutaneously)
Experimental: B6.PL.THY1^a (B6.PL) mice reconstituted with OT-2 transgenic T cells were immunized with soluble OVA, E. coli LPS alone, P. gingivalis LPS alone, OVA+E. coli LPS, or OVA+P. gingivalis LPS, either subcutaneously in the footpad or intraperitoneally. Four days later, the draining popliteal lymph nodes (subcutaneous route), or spleens (intraperitoneal route) were removed, and single cell suspensions were restimulated with varying concentrations of OVA (0-500 μg/mL) for 72 hours, and pulsed with [^3H] for 12 hours. The cell populations were then assayed for IL-13 with ELISA. The data presented in FIG. 10 are representative of two independent experiments.
Four days after injecting with OVA or OVA+LPS, 2.5×10^5 popliteal lymph node cells (footpad injections) or splenocytes (intraperitoneal injections) were plated in triplicate in 96-well flat bottomed plates (Costar, Cambridge, Mass.) in 200 μl of RPMI complete medium (GIBCO BRL, Grand Island, N.Y., US) supplemented with 5% fetal bovine serum (FBS), together with different concentrations (0-500 μg/mL of OVA, or OVA peptide (SIINFEKL, SEQ ID NO:1) (New England Peptide Incorporated, Fitchburg, Mass.). Proliferative responses were assessed after 72 hours of culture in a humidified atmosphere of 5% CO2 in air. […]

B1: OVA: Chicken OVALBUMIN (Sigma) in PBS, depleted of the endotoxin activity; model soluble protein antigen (protein, UniProt P01012 2-386, looked up)
Ovalbumin: GSIGAASMEFCFDVFKELKVHHANENIFYCPIAIMSALAMVYLGAKDSTRTQINKVVRFDKLPGFGDSIEAQCGTSVNVHSSLRDILNQITKPNDVYSFSLASRLYAEERYPILPEYLQCVKELYRGGLEPINFQTAADQARELINSWVESQTNGIIRNVLQPSSVDSQTAMVLVNAIVFKGLWEKAFKDEDTQAMPFRVTEQESKPVQMMYQIGLFRVASMASEKMKILELPFASGTMSMLVLLPDEVSGLEQLESIINFEKLTEWTSSNVMEERKIKVYLPRMKMEEKYNLTSVLMAMGITDVFSSSANLSGISSAESLKISQAVHAAHAEINEAGREVVGSAEAGVDAASVSEEFRADHPFLFCIKHIATNAVLFFGRCVSP
[1]
  clonal expansion of OVA-specific CD4+ T cells: significant clonal expansion
[2]
  IFNγ production: little, if any
  IL-2 production: little, if any
  IL-4 production: little, if any
  IL-5 production: little, if any
  IL-10 production: little, if any
[3]
  IFNγ production: did not secrete significant levels
  IL-2 production: did not secrete significant levels
  IL-5 production: did not secrete significant levels
  IL-10 production: did not secrete significant levels
[4]
  IL-13 production: little, if any
